{
  "source": "paper PMC8843702",
  "about": "(2022)",
  "binders": {"B1": {"name": "P5-22 (antibody, V domains shown)", "VH": "EVQLVESGGGLVKPGGSLRLSCAASGFTFRDYDIIWIRQAPGKGLEWVSYISRSGSTIYYSDSVRGRFTISRDNAKNSVYLQMNSLRAEDTAVYYCARDFGFEGPRMDVWGQGTTVTVSS", "VL": "DIQMTQSPSSLSASVGDRVTITCQASQDIKNYLNWYQQKPGKAPKLLIYDASNLETGVPSRFSGSGSGTDFTFTISSLQPEDIATYYCQQFDNLPITFGQGTRLEIK"}, "B2": {"name": "polymeric P5-22 (antibody, V domains shown)", "VH": "B1 VH", "VL": "B1 VL"}},
  "test_in_all_cases": "SPR",
  "key": {"SARS-CoV-2 S protein": {"molecular_target": "SARS-CoV-2 S protein (SARS-CoV-2, UniProt P0DTC2)"}, "[1]": {"molecular_target": "T1, WT SARS-CoV-2 S RBD protein (SARS-CoV-2, UniProt P0DTC2)"}, "[2]": {"molecular_target": "T1, WT SARS-CoV-2 S RBD protein", "remark": "listed apart in the source"}},
  "data": [
    {"binder": "B1", "values": [
      {"measurement": "Kd", "setting": "SARS-CoV-2 S protein", "result": "< 3.34", "unit": "pM"},
      {"measurement": "koff", "setting": "[1]", "result": "< 1e-05", "unit": "s⁻¹"},
      {"measurement": "Kd", "setting": "[2]", "result": "< 4.59", "unit": "pM"}
    ]},
    {"binder": "B2", "values": [
      {"measurement": "koff", "setting": "[1]", "result": "< 1e-05", "unit": "s⁻¹"},
      {"measurement": "Kd", "setting": "[2]", "result": "< 0.498", "unit": "pM"}
    ]}
  ]
}
